Patent US20210032287A1

Target: Syntaxin-1 (GST-tagged) (Homo sapiens (Human)) (UniProt Q16623)
Experiment: ELISA-based competition assay; peptide (0.1, 0.5, 1 mM) preincubated with GST-Syntaxin-1 (10 or 5 nM), added to His-Munc18 (100 nM) on a nickel plate; anti-GST detection, A450

Chain of Syntaxin-1 (GST-tagged) (Homo sapiens (Human)) (Q16623 1-261 limits assumed): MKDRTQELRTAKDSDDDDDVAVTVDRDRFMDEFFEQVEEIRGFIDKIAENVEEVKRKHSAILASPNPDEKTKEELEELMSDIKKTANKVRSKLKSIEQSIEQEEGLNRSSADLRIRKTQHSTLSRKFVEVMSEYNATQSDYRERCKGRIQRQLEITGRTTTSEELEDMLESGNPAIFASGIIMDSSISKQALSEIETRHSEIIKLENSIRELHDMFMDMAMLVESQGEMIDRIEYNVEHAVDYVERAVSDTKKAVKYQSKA

“Ac-His-Ala-Leu-Arg-Phe-Trp-NH2 (peptide)” was tested, and the maximum inhibition of Munc18/Syntaxin-1 binding was 37%.

In the case of Ac-HILDMW-NH2, the maximum inhibition of Munc18/Syntaxin-1 binding is reported as 67%.
